{"source": "patent US20250381307A1", "about": "“RETRO-AAV AND USE IN TREATING NEURODEGENERATIVE DISEASES” (priority 2023, published 2025)", "molecules": {"B1": {"name": "AAV8R4: AAV8R capsid mutant R490Q (SEQ ID NO: 5) (protein)", "chain": "MAADGYLPDWLEDNLSEGIREWWALKPGAPKPKANQQKQDDGRGLVLPGYKYLGPFNGLDKGEPVNAADAAALEHDKAYDQQLQAGDNPYLRYNHADAEFQERLQEDTSFGGNLGRAVFQAKKRVLEPLGLVEEGAKTAPGKKRPVEPSPQRSPDSSTGIGKKGQQPARKRLNFGQTGDSESVPDPQPLGEPPAAPSGVGPNTMAAGGGAPMADNNEGADGVGSSSGNWHCDSTWLGDRVITTSTRTWALPTYNNHLYKQISNGTSGGATNDNTYFGYSTPWGYFDFNRFHCHFSPRDWQRLINNNWGFRPKRLSFKLFNIQVKEVTQNEGTKTIANNLTSTIQVFTDSEYQLPYVLGSAHQGCLPPFPADVFMIPQYGYLTLNDGSQAVGRSSFYCLEYFPSQMLRTGNNFQFTYTFEDVPFHSSYAHSQSLDRLMNPLIDQYLYYLSRTQTTGGTANTQTLGFSQGGPNTMANQAKNWLPGPCYRQQQVSTTTGQNNNSNFAWTAGTKYHLNGRNSLANPGIAMATHKDDEERFFPSNGILIFGKQNAARDNADYSDVMLTSEEEIKTTNPVATEEYGIVADNLQRGNLADQDYTKTARQAATADVNSQGALPGMVWQNRDVYLQGPIWAKIPHTDGNFHPSPLMGGFGLKHPPPQILIKNTPVPADPPTTFNQSKLNSFITQYSTGQVSVEIEWELQKENSKRWNPEIQYTSNYYKSINVDFAVNTEGVYSEPRPIGTRYLTRNL"}, "B2": {"name": "AAV8R3: AAV8R capsid mutant Y447F (SEQ ID NO: 4) (protein)", "chain": "B1 chain with Y447F, Q490R"}, "B3": {"name": "AAV8R2: AAV8R capsid mutant N411S (SEQ ID NO: 3) (protein)", "chain": "B1 chain with N411S, Q490R"}, "B4": {"name": "AAV8R5: AAV8R capsid mutant V125I (SEQ ID NO: 6) (protein)", "chain": "B1 chain with V125I, Q490R"}, "B5": {"name": "AAV8R8: AAV8R capsid mutant T495A (SEQ ID NO: 9) (protein)", "chain": "B1 chain with Q490R, T495A"}, "B6": {"name": "AAV8R10: AAV8R capsid mutant V125I + A606S (SEQ ID NO: 11) (protein)", "chain": "B1 chain with V125I, Q490R, A606S"}, "B7": {"name": "AAV8R6: AAV8R capsid mutant F536Y (SEQ ID NO: 7) (protein)", "chain": "B1 chain with Q490R, F536Y"}, "B8": {"name": "AAV8R14: AAV8R capsid mutant V125I + A606S + T495A (SEQ ID NO: 15) (protein)", "chain": "B1 chain with V125I, Q490R, T495A, A606S"}, "B9": {"name": "AAV8R11: AAV8R capsid mutant V125I + T495A (SEQ ID NO: 12) (protein)", "chain": "B1 chain with V125I, Q490R, T495A"}, "B10": {"name": "AAV8R7: AAV8R capsid mutant A606S (SEQ ID NO: 8) (protein)", "chain": "B1 chain with Q490R, A606S"}, "B11": {"name": "AAV8R13: AAV8R capsid mutant V125I + F536Y + T495A (SEQ ID NO: 14) (protein)", "chain": "B1 chain with V125I, Q490R, T495A, F536Y"}, "B12": {"name": "AAV8R1: AAV8R capsid mutant V183E (SEQ ID NO: 2) (protein)", "chain": "B1 chain with V183E, Q490R"}, "B13": {"name": "AAV8R9: AAV8R capsid mutant V125I + F536Y (SEQ ID NO: 10) (protein)", "chain": "B1 chain with V125I, Q490R, F536Y"}, "B14": {"name": "G88P3: 1395-bp shortened derivative of G88P2 promoter (SEQ ID NO: 45) (nucleic acid, listed as Homo sapiens)", "DNA": "TCTAGATGTACCACTGACATCTGCTTTAAATCTTTTGCCCATTTCATTTTTACCCTCTAACCATTTCATTACTAAAACACAAAACAAACTCCGGAAAGGAGTTTGTTGATGAGAAAACACTGAAAGTACGATTTAAATTGAGGAATGGAGATTTTCTGTGGATAATTGTCTATGTTCCACTTTACCAAAGAAAAATGAATTTCAAGTAGTGCATAAAGTAATTCTCGTTAAAAAATGTGGGAATAAAGAGATCAGTCCTGGGTACTGGGAATATATTTATCTCACAGAAAAATCTTGCCCACAAAATGCATCAGACTGAGATGAAATACTCTAGGGTATATTAAATTTTATTCTAATATTGAAGGGAGGGAAAAAAAGGACGGAAAGAAAAATGAAACAGGATGAAAAATAAGGTGATTGGGAGAGAGAAAAGACAGAGAAACTTGTTAACGACAGGACTTTCTGAGCAAGATATTTTTCTTCCTTTTACAAGTTGGAAGCTATTGAATAATTCATGCCAAGCGTGGAAAGGCTGTCTTTTCCCTGGATGATGTATAACTAAGCAGGAGAGAGCTTCGAGTGGGTTCACCACATCAGCCACCACTCCTGCTTCTGAGCACAGGGTGCTCTCCTCTTGAGCTCAGCTTCTGCTTTTGCAGCCAAGCATTCTTGCTGCTGCTGCCTGCCTGCCCACCCGCCTGGGCTTGCAGCCCGCCACTTTACTTTCTCCAGCCCTGATACCAGCTGAGAAGTCTCCCTGCAGCTGCTAGTTCCTGCCCAGGACCATGTGTGTGGATGCTGCTTGGGAGAAGCGGGCACTTGCTCCTGGCACTGATCCCAGCTGAGTTTCTCCTGTTGATTTCTGGACCACTGATGCTGTTGCTGAGGAGGTATTTCCCGGCATCCCTCCCCCTGAGACACCGGCTAAGGACCAGCCTAAACGCAAGGTAACCTTCACCTCTTTCCCATGGGATTTTCCCCAGCTGGGATATCTCTGCTTTCTCCTGGAACTAGGTCCTCCAGCTGGCAACATATCTCTCTCTCTCTCTCTCTCTCTCTCTCTCTCTCTCTGTGTGTGTGTGTGTGTGTTGGGGGAGAAGAGGAGACTGTTTTAGGTATTGCTCTGTCCTAGGGCTTCCCCGATACCTGCTGAATCCAATGCAAAGTGGCCTTTCCCCTGGCTCTGGAGACATTTCCGAGGCAGGCACCTGTCATTTGCCACCCCCGTCCTCCTCCTCGAGCTCCCTTTCTCCCCCTCCCCCAGCCCATTATTCTGCTTCAGCCTTTTGTGTCAGTGGCAGAGGGCTGAAGGGATGTCTTTGCCCTTCTGGCAGGCAGGACAGTGTCAGGATGGACCGCGCTGCCAGAAGCCGACGCTAGCGAGGGAGGTGTGAA"}}, "key": {"[1]": {"tested_on": "substantia nigra", "assay": "Promoter activity level in substantia nigra after AAV injection into the SNr", "format": "in vivo, mice", "details": "numbers of YFP-expressing neurons per animal", "source_text": "(§1) Brain profiles of two epigenetic marks for enhancers and promoters, monomethylation of histone H3 lysine 4 (H3K4me1) and acetylation of histone H3 lysine 27 (H3K27ac) were checked and approximately 2 kilobase-long sequences around the transcriptional start site (TSS) that have high levels of H3K4me1 and/or H3K27ac were identified in mouse brain. Homologous sequences at equivalent positions of the human genome were then cloned onto an AAV backbone, and the activity of the homologous sequences in directing reporter expression was tested in mice after injections of AAVs into the SNr (FIG. 3A-C, TABLE 3).\n(§2) Mice were anesthetized with sodium pentobarbital (Nembutal; 80 mg/kg, i.p.), and then placed into a stereotaxic device (KOPF). Eye cream was applied on both corneas to avoid dehydration. The skull above the targeted areas was thinned with a dental drill and carefully removed. Injections were conducted with a 10 μL syringe connected to a 33-Gauge needle (Neuros; Hamilton), using a microsyringe pump (Legato 130, KD Scientific). A total volume of 200 nL virus was injected into the SNr at a speed of 20 nL/min. The coordinates for the SNr were 3.4 mm posterior, 1.3 mm lateral, 4.8 mm ventral to the bregma.\n(§3) Images were acquired using a confocal microscope (Carl Zeiss, LSM880) and an Axiolmager.Z1 microscope with apotome (Carl Zeiss). Brain structures were identified microscopically and in digital photos using a mouse brain atlas. To analyze the number of EYFP+ cells in the striatum, slices from rostral to caudal striatum were used. Every sixth section was analyzed, and numbers of EYFP+ cells were multiplied by six to acquire the approximate total number and mean number of cells per animal. Images were processed using ImageJ (NIH, USA), and final quantifications were independently performed manually by two blinded experimenters."}, "[2]": {"tested_on": "striatonigral projection neurons (striatal MSNs)", "assay": "Retrograde labeling of striatal MSNs after AAV injection into the SNr (EYFP+ cell counting)", "format": "in vivo, mice", "details": "for Activity Level STR: striatum, numbers of YFP-expressing neurons per animal; for reporter-labeled MSNs by promoter (FIG. 4B): SNr injection, n=3 mice, mean±SEM; for Labeling Efficiency in Striatonigral Pathway: AAV8R capsid mutants, numbers of labeled neurons per animal", "source_text": "as §1, §2, §3"}}, "note": "Changes are numbered by the printed parent chain. Names and notes keep the numbering of the source.", "data": [{"molecule": "R9P1: tested promoter from gene RGS9, 2152 bp (SEQ ID NO: 47)", "values": [{"measurement": "Activity Level SN", "setting": "[1]", "result": "+ (<5k)"}, {"measurement": "Activity Level STR", "setting": "[2]", "result": "+++ (10k-25k)"}]}, {"molecule": "G88P2: 2259-bp promoter from the gene GPR88 (SEQ ID NO: 44)", "values": [{"measurement": "Activity Level SN", "setting": "[1]", "result": "+ (<5k)"}, {"measurement": "reporter-labeled MSNs by promoter (FIG. 4B)", "setting": "[2]", "result": "36290±3705"}, {"measurement": "Activity Level STR", "setting": "[2]", "result": "++++ (>25k)"}]}, {"molecule": "B1", "values": [{"measurement": "Labeling Efficiency in Striatonigral Pathway", "setting": "[2]", "result": "+ (<5k)"}]}, {"molecule": "B2", "values": [{"measurement": "Labeling Efficiency in Striatonigral Pathway", "setting": "[2]", "result": "+ (<5k)"}]}, {"molecule": "B3", "values": [{"measurement": "Labeling Efficiency in Striatonigral Pathway", "setting": "[2]", "result": "+ (<5k)"}]}, {"molecule": "B4", "values": [{"measurement": "Labeling Efficiency in Striatonigral Pathway", "setting": "[2]", "result": "+ (<5k)"}]}, {"molecule": "B5", "values": [{"measurement": "Labeling Efficiency in Striatonigral Pathway", "setting": "[2]", "result": "+ (<5k)"}]}, {"molecule": "B6", "values": [{"measurement": "Labeling Efficiency in Striatonigral Pathway", "setting": "[2]", "result": "+ (<5k)"}]}, {"molecule": "B7", "values": [{"measurement": "Labeling Efficiency in Striatonigral Pathway", "setting": "[2]", "result": "+ (<5k)"}]}, {"molecule": "B8", "values": [{"measurement": "Labeling Efficiency in Striatonigral Pathway", "setting": "[2]", "result": "++ (5k-10k)"}]}, {"molecule": "B9", "values": [{"measurement": "Labeling Efficiency in Striatonigral Pathway", "setting": "[2]", "result": "+ (<5k)"}]}, {"molecule": "B10", "values": [{"measurement": "Labeling Efficiency in Striatonigral Pathway", "setting": "[2]", "result": "+ (<5k)"}]}, {"molecule": "B11", "values": [{"measurement": "Labeling Efficiency in Striatonigral Pathway", "setting": "[2]", "result": "++ (5k-10k)"}]}, {"molecule": "B12", "values": [{"measurement": "Labeling Efficiency in Striatonigral Pathway", "setting": "[2]", "result": "+ (<5k)"}]}, {"molecule": "B13", "values": [{"measurement": "Labeling Efficiency in Striatonigral Pathway", "setting": "[2]", "result": "+ (<5k)"}]}, {"molecule": "B14", "values": [{"measurement": "Activity Level SN", "setting": "[1]", "result": "+ (<5k)"}, {"measurement": "reporter-labeled MSNs by promoter (FIG. 4B)", "setting": "[2]", "result": "37026±6646"}, {"measurement": "Activity Level STR", "setting": "[2]", "result": "++++ (>25k)"}, {"measurement": "labeled MSNs per mouse", "setting": "[2]; viruses expressing EYFP, injection into the SNr (FIG. 4B)", "result": "3.7±0.66 ×104 MSNs per mouse"}]}]}
